Target: subtilisin A (Bacillus licheniformis) (Bacillus licheniformis) (UniProt P00780)
Experiment: enzyme inhibition kinetics (Lineweaver–Burk); substrate (AAPF) added to an equilibrium mixture of subtilisin A and rEs-DWD1; competitive inhibition, inhibitor at 0, 2.5 and 5 μM; 0.1 M Tris-HCl pH 8.0, 37 °C; p-nitroaniline read at 405 nm

UniProt P00780, sequence (P00780 106-379): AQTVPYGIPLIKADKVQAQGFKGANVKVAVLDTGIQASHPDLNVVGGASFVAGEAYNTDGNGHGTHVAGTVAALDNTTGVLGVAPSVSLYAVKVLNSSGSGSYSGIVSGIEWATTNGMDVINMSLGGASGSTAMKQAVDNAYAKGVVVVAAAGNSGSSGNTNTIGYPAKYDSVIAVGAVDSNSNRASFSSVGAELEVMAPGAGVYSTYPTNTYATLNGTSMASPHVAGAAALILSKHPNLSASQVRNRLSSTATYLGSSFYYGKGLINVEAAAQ

Question: For “recombinant Es-DWD1 (double WAP domain-containing protein from Eriocheir sinensis) (natural protein)”, which Ki is on record?
Answer: 4.12 nM

— PMC3742519
